This note sets out measurements from article PMC9405056, “Functional Characterization of Arylalkylamine N-Acetyltransferase, a Pivotal Gene in Antioxidant Melatonin Biosynthesis from Chlamydomonas reinhardtii” (Antioxidants, 2022).

Substrate in this data set: NCCc1c[nH]c2ccc(O)cc12
Kind of data set: HPLC with fluorescence detection of N-acetylserotonin; Lineweaver-Burk plot. It counts as biochemical, Chlamydomonas reinhardtii. The conditions noted are these: acetyl-CoA as co-substrate (0.5 mM in the standard assay), 100 mM potassium phosphate, standard assay pH 8.8, 45 °C, 30 min, serotonin 50 to 2000 μM.

B1: CrAANAT (Chlamydomonas reinhardtii) (protein)
chain: MAEESLDASVQPLGSTVFFGPVQPEMLDRIHELEAASYPEDEAATYEKLKFRIENASNVFLVALSAEGDGEPKVVGFVCGTQTRASKLTHESMSTHDADGALLCIHSVVVDAALRRRGLATRMLRAYTAFVAATSPGLTGIRLLTKQNLIPLYEGAGFTLLGPSDVEHGADLWYECAMELEAEEEAEAAEA
notes: full length, 191 residues, codon-optimized synthetic gene; N-terminal GST fusion with C-terminal His6 (GST-CrAANAT-His6, pET60), tags kept
For the protein B1, the Km (commonly the concentration of substrate that gives half-maximal velocity) came out at 247 µM.
